# Results reported in article PMC10269782.
# Legend:
# Nem1-3×Flag = assay: co-IP (GFP IP, anti-Flag western blot, band intensity quantified); conditions: ΔSpo7::Nem1-Flag strain; parent: est. 100; read off a plot
# [1] = target: Spo7^L50R (co-IP construct) (Botryosphaeria dothidea); assay: co-IP; GFP and Flag fusion constructs transformed in pairs into B. dothidea LW03 (Spo7-Pah1 also in the ΔNem1 mutant); total proteins incubated with anti-GFP agarose; eluates blotted with anti-Flag and anti-GFP antibodies
# [2] = target: Spo7^L51R (co-IP construct) (Botryosphaeria dothidea); assay: as above
# [3] = target: Spo7^3R (co-IP construct) (Botryosphaeria dothidea); assay: as above
# [4] = target: Spo7^I52R (co-IP construct) (Botryosphaeria dothidea); assay: as above
Substance,percent of parent (Nem1-3×Flag),also measured
GFP-Spo7 L50A,108%,–
GFP-Spo7 L50A; L51A; I52A,97%,–
GFP-Spo7 I52A,98%,–
GFP-Spo7 L51A,100%,–
Nem1-3×Flag (enzyme),–,percent reduction of the interaction level against wild-type Spo7 (Nem1-Flag band in GFP IP) [1]: 72%; percent reduction of the interaction level against wild-type Spo7 (Nem1-Flag band in GFP IP) [2]: 68%; percent reduction of the interaction level against wild-type Spo7 (Nem1-Flag band in GFP IP) [3]: 93%; percent reduction of the interaction level against wild-type Spo7 (Nem1-Flag band in GFP IP) [4]: 55%
